Test results from publication PMC2814788.

Biological target: C-terminally myc-tagged Sec8 (Sec8-myc) (S. cerevisiae) (UniProt P32855)
Assay: co-IP

UniProt P32855, sequence (P32855 whole entry): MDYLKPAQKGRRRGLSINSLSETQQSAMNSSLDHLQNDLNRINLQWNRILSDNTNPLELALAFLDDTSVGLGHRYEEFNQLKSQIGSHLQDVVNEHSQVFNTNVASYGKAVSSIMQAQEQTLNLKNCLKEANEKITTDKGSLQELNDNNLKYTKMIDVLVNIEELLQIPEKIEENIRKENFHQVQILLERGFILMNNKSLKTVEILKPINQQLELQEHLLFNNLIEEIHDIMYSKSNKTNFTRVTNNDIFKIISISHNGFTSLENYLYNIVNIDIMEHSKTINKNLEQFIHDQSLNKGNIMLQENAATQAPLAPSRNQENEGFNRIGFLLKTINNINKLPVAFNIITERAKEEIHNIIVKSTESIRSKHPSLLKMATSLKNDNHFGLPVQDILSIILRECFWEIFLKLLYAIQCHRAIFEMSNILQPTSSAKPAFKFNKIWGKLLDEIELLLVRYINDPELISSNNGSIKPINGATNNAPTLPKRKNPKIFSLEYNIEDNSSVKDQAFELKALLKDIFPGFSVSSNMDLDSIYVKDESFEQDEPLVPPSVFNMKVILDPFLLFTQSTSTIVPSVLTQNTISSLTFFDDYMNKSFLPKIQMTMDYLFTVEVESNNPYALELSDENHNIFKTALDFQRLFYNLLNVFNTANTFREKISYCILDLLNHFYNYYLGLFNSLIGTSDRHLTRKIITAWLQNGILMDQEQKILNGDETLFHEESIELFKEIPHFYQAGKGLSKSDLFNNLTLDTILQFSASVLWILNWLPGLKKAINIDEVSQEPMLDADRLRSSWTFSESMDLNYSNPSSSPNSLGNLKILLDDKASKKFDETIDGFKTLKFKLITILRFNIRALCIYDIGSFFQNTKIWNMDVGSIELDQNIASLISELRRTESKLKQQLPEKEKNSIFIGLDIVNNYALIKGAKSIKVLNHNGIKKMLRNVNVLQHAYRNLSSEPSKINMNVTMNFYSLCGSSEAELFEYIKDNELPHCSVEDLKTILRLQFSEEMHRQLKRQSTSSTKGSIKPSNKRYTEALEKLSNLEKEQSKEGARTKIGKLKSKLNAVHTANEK

For “Exo70-E557K (gain-of-function mutant, in yeast lysate) (from UniProt P19658 63-623) (natural protein)”, which reduction of coprecipitated Exo70 against wild type is on record?
The reduction of coprecipitated Exo70 against wild type was 25%.
